The target of test [1] is T1, human PAR-2 (human, UniProt P55085 26-397).
T1 sequence: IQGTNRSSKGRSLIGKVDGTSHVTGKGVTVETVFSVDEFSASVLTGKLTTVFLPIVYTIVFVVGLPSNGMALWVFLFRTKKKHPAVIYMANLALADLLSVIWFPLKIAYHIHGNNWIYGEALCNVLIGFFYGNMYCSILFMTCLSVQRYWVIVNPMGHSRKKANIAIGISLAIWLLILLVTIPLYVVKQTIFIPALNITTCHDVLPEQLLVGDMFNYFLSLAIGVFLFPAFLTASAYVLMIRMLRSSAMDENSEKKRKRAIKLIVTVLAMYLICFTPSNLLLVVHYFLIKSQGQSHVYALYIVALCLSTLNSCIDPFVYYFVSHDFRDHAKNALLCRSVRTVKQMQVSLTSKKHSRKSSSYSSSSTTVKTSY
Briefly: cell-based or functional assay.

The target in test [2] is T1, human PAR-2. In words: cell-based or functional assay. The source holds these as a separate data set.
In test [3] the target is T1, human PAR-2. In words: cell-based or functional assay. This is another data set of the same source.
Test [4] deals with T1, human PAR-2. In words: cell-based or functional assay. The source holds these as a separate data set.
For test [5], the target named is T2, human PAR-1 (human, UniProt P25116 22-425).
T2 construct: also called huPAR-1
T2 sequence: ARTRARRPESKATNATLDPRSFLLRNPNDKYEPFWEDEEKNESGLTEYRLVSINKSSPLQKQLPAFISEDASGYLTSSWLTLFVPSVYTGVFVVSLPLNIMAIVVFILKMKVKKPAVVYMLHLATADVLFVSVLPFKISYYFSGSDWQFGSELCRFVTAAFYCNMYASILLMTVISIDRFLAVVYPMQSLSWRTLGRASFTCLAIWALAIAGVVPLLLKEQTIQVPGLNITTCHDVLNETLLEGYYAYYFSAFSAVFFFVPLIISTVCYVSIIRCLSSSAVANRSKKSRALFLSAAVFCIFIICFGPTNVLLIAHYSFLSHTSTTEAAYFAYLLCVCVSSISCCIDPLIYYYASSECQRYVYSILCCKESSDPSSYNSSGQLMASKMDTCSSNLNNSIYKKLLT
In words: flow cytometry, transfected Expi293F cells. As to the method: Paired heavy and light chains encoded by these sequence pairs were expressed as a full length human IgG4 isotype antibodies and assessed for PAR-2 binding and selectivity by flow cytometry. […] Cells were used for flow cytometric analysis 36-48 hours post-transfection. Use of Nt-PAR-2 as a target allowed antibodies which bound the N-terminal residues of PAR-2 (which comprise the protease-cleavage sites on PAR-2) to be distinguished from antibodies which bound other extracellular sites on PAR-2, such as the PAR-2-activating ligand-binding site(s). Expi293F cells, transiently expressing one of each of the different target proteins were labelled with different intensities of a single fluorphor Encoder dye (Intellicyt) for 10 mins at either 1 in 250 dilution for high intensity and/or 1 in 1500 dilution for moderate intensity, enabling simultaneous analysis of multiple cell populations. After washing the cells were then mixed in an equal ratio with the unlabeled cell type and analyzed for antibody binding.
The cells were plated in 96 well plates at 2×10⁵ cells/well. Following a wash step using Phosphate buffered saline (PBS), the primary antibody (anti-PAR-2 antibody) was added at a concentration of 10 μg/mL in 50 μL of FACS buffer (0.5% w/v BSA in PBS) to each well and incubated for 10-15 mins. Following a wash step, secondary antibody (anti-human Fc-FITC) was added to the wells at 1:200 dilution in 50 μL for 10-15 mins. Following a washing step, the cells were re-suspended in fluorescence-activated cell sorting (FACS) buffer. The flow cytometry analysis was performed on an Intellicyt iQue screener. Gates were drawn around the different intensities of encoder dye-positive cells and these populations were analyzed separately from each other and the unlabeled cells for binding by the primary antibody.
(In general: A flow cytometer gives signals particle by particle.)

The target in test [6] is T1, human PAR-2. In words: cell-based or functional assay. This is another data set of the same source.

Values joined by “and” are separate entries in the source; they are usually repeats but may differ in a detail not shown here. Equal entries are not always repeated.

B1: P24E976 (antibody, human IgG4 S228P, kappa, V domains shown)
VH: QVQLVQSGAEVKKPGSSVKVSCKASGFSLSSYAISWVRQAPGQGLEWMGVIWGNQNVYYAQKFQGRVTITADESTSTAYMELSSLRSEDTAVYYCARWKGYKDYPFDYWGQGTLVTVSS
VL: EIVLTQSPATLSLSPGERATLSCRASQNVYKWLDWYQQKPGQAPRLLIYNAYSRATGIPARFSGSGSGRDFTLTISSLEPEDFAVYYCQQHHSGWTFGGGTKVEIKR
As for B1, in test [1], the “Calcium flux IC50” value is 15.9 nM and 15.3 nM and 7.1 nM and 5.9 nM; the “IL-6 release in A549 cells IC50” value came out at 5.63 nM; the “IL-8 release in A549 cells IC50” value was 4.25 nM. Also, the “PAR-2 β-arrestin cell based assay IC50, 2 µM SLIGKV” value in test [2] is 0.9 nM and 1.26 nM.

B2: 309-12e (antibody, human IgG4 S228P, kappa, V domains shown)
VH: QVQLQQWGAGLLKPSETLSLTCAVYGFSLNSYGVIWIRQPPGKGLEWIGVIWGNGNTYYNPSLKSRVTISVDTSKNQFSLKLSSVTAADTAVYYCARWRGYKDYPFDYWGQGTLVTVSS
VL: EIVLTQSPATLSLSPGERATLSCKASQNIYKYLDWYQQKPGQAPRLLIYNTNSLHTGIPARFSGSGSGRDFTLTISSLEPEDFAVYYCLQHNSGWTFGGGTKVEIKR
As for B2, in test [3], the “PAR-2 calcium flux cell assay IC50” value stood at 8.3 nM and the “PAR-2 β-arrestin cell assay IC50, 1 µM SLIGKV” value was determined as 2.3 nM.

B3: 309-11e (antibody, human IgG4 S228P, kappa, V domains shown)
VH: QVQLQESGPGLVKPSETLSLTCTVSGFSLNSYGVIWIRQPPGKGLEWIGVIWGNGNTYYNPSLKSRVTISVDTSKNQFSLKLSSVTAADTAVYYCARWRGYKDYPFDYWGQGTLVTVSS
VL: EIVLTQSPATLSLSPGERATLSCKASQNIYKYLDWYQQKPGQAPRLLIYNTNSLHTGIPARFSGSGSGRDFTLTISSLEPEDFAVYYCLQHNSGWTFGGGTKVEIKR
For the molecule B3, in test [3], the “PAR-2 calcium flux cell assay IC50” value stood at 22.8 nM and the “PAR-2 β-arrestin cell assay IC50, 1 µM SLIGKV” value worked out at 6.1 nM.

B4: 309-6e (antibody, human IgG4 S228P, kappa, V domains shown)
VH: EVQLVESGGGLVQPGGSLRLSCAASGFSLNSYGVIWVRQAPGKGLEWVSVIWGNGNTYYNDSVKGRFTISRDNSKNTLYLQMNSLRAEDTAVYYCARWRGYKDYPFDYWGQGTLVTVSS
VL: EIVLTQSPATLSLSPGERATLSCKASQNIYKYLDWYQQKPGQAPRLLIYNTNSLHTGIPARFSGSGSGRDFTLTISSLEPEDFAVYYCLQHNSGWTFGGGTKVEIKR
Consider B4, for which, in test [3], the “PAR-2 calcium flux cell assay IC50” value came out at 12.7 nM and the “PAR-2 β-arrestin cell assay IC50, 1 µM SLIGKV” value was found to be 5.6 nM.

B5: P24E1103 (antibody, human IgG4 S228P, kappa, V domains shown)
VH: QVQLVQSGAEVKKPGSSVKVSCKASGFSLSSYAISWVRQAPGQGLEWMGVIWGNQNVYYAQKFQGRVTITADESTSTAYMELSSLRSEDTAVYYCARWKGYKDYPFDYWGQGTLVTVSS
VL: EIVLTQSPATLSLSPGERATLSCRASQNVYKWLDWYQQKPGQAPRLLIYNANNRATGIPARFSGSGSGRDFTLTISSLEPEDFAVYYCQQHHSGWTFGGGTKVEIKR
Regarding B5, in test [1], the “Calcium flux IC50” value was 12.7 nM, the “IL-6 release in A549 cells IC50” value was 7.18 nM and the “IL-8 release in A549 cells IC50” value was 5.17 nM. The “PAR-2 β-arrestin cell based assay IC50, 2 µM SLIGKV” value in test [2] stood at 1.54 nM.

B6: 309-4e (antibody, human IgG4 S228P, kappa, V domains shown)
VH: QVQLVQSGAEVKKPGSSVKVSCKASGFSLNSYGVIWVRQAPGQGLEWMGVIWGNGNTYYNQKFQGRVTITADESTSTAYMELSSLRSEDTAVYYCARWRGYKDYPFDYWGQGTLVTVSS
VL: EIVLTQSPATLSLSPGERATLSCKASQNIYKYLDWYQQKPGQAPRLLIYNTNSLHTGIPARFSGSGSGRDFTLTISSLEPEDFAVYYCLQHNSGWTFGGGTKVEIKR
On to B6, for which the “PAR-2 β-arrestin cell based assay IC50, 2 µM SLIGKV” value in test [2] was 2.1 nM and 5.9 nM. Besides, in test [3], the “PAR-2 calcium flux cell assay IC50” value was found to be 7.6 nM and the “PAR-2 β-arrestin cell assay IC50, 1 µM SLIGKV” value stood at 5.8 nM.

B7: P24E1099 (antibody, human IgG4 S228P, kappa, V domains shown)
VH: QVQLVQSGAEVKKPGSSVKVSCKASGFSLSSYAISWVRQAPGQGLEWMGVIWGNQNVYYAQKFQGRVTITADESTSTAYMELSSLRSEDTAVYYCARWKGYKDYPFDYWGQGTLVTVSS
VL: EIVLTQSPATLSLSPGERATLSCRASQNVYKWLDWYQQKPGQAPRLLIYNANSRATGIPARFSGSGSGRDFTLTISSLEPEDFAVYYCQQHHSGWTFGGGTKVEIKR
B7: in test [1], the “Calcium flux IC50” value is 12.3 nM, the “IL-6 release in A549 cells IC50” value amounted to 6.74 nM and the “IL-8 release in A549 cells IC50” value turned out to be 4.89 nM. For the same molecule, the “PAR-2 β-arrestin cell based assay IC50, 2 µM SLIGKV” value in test [2] was 1.37 nM.

B8: 309-6i (antibody, human IgG4 S228P, kappa, V domains shown)
VH: EVQLVESGGGLVQPGGSLRLSCAASGFSLNSYGVIWVRQAPGKGLEWVSVIWGNGNTYYNDSVKGRFTISRDNSKNTLYLQMNSLRAEDTAVYYCARWRGYKDYPFDYWGQGTLVTVSS
VL: DIQMTQSPSSLSASVGDRVTITCKASQNIYKYLDWYQQKPGKAPKRLIYNTNSLHTGVPSRFSGSGSGTEFTLTISSLQPEDFATYYCLQHNSGWTFGGGTKVEIKR
For the molecule B8, the “PAR-2 β-arrestin cell assay IC50, 1 µM SLIGKV” value in test [3] turned out to be 40.6 nM.

B9: Ab20 (antibody, human IgG4, V domains shown)
VH: EVQLVESGGGLVQPKGSLKLSCAASGFTFNIYAMHWVRQAPGKGLEWVARIGSKSSNYATNYADSVKDRFTISRDDSQSMLCLQMNNLKTEDTAMYYCVREDYYGNSFDSWGQGTTLAVSS
VL: QIVLSQSPAILSASPGEKVTMTCRTSSSVIYIHWYQQKSGSSPKPWIYATSNLASGVPTRFSGSGSGTSYSLTISRVEAEDAATYYCHHWRSNPPTFGGGTKLEIK
notes: also called Anti-PAR-2 antibody # 20
In the case of B9, the “IC50, PAR-2 β-arrestin cell assay” value in test [4] stood at 10.7 nM. Further, the binding result in test [5] was “no binding (tested: 10 µg/mL)”. For the same molecule, the “IC50, PAR-2 calcium flux assay (trypsin EC80)” value (“IC50, PAR-2 calcium flux assay” for short) in test [6] was 73.2 nM.

B10: Ab1 (antibody, human IgG4, V domains shown)
VH: EVQLVEFGGGLVQPKGSLKLSCAASGFTFNTNAMHWVRQAPGKGLEWVARIGSKSSYFATYYADSVKDRFTISRDDSRSMFYLQMNNLKTEDTAMYYCVREDYYGSSFDLWGQGTTLTVSS
VL: QIVLSQSPAILSASPGEKVTMTCRASSSLPYIHWYQQKPGSSPRPWIYATSNLASGVPARFSGRGSGTSYSLTISRMEAEDAATYYCQQWSSTPPTFGGGSKLEIK
notes: also called Anti-PAR-2 antibody # 1
B10: the “IC50, PAR-2 β-arrestin cell assay” value in test [4] was 8.4 nM. The binding result in test [5] was “no binding (tested: 10 µg/mL)”. Besides, in test [6], the “IC50, PAR-2 calcium flux assay” value is 50.5 nM.

B11: Ab39 (antibody, human IgG4, V domains shown)
VH: EVQLVESGGGLVQPKGSLKLSCAASGFTFNTYAMHWVRQAPGKGLEWVARIGSKSSYYATYYADSVKDRFTISRADSQSMLYLQMNNLKTEDTAIYYCVREDYYGCSFDYWGQGTTLTVSS
VL: QIVLSQSPVILSTSPGEKVTMTCRANSRVIYVHWYQQKPGSSPKPWIFATSNLASGVPSRFSGSGSGTSYSLTISRVETEDAATYYCQHCGNNPPTFGSGTKLEIK
notes: also called Anti-PAR-2 antibody # 39
Turning to B11, the “IC50, PAR-2 β-arrestin cell assay” value in test [4] is 4.9 nM. Moreover, the binding result in test [5] is recorded as “no binding (tested: 10 µg/mL)”. The “IC50, PAR-2 calcium flux assay” value in test [6] worked out at 29 nM.

B12: Ab77 (antibody, human IgG4, V domains shown)
VH: EVQLVGSGGGLVQPKGSLKLSCAASGFTFNTYAMHWVRQAPGKGLEWVARIGSKSSYYATYYADSVKDRFTISRDDSQSMLYLQMNNLKTEDTAMYYCVREDYYGSSYDYWGQGTTLTVSS
VL: DIVMTQSHKFMSISVGDRVSITCKASQDVGTAVAWHQQKAGQSPKLLIYWASARHTGVPDRFTGSGSGTDFTLTISNVQSEDLTDFFCQQYSNYPFTFGSGTKLEIK
notes: also called Anti-PAR-2 antibody # 77
B12: the “IC50, PAR-2 β-arrestin cell assay” value in test [4] is 16.5 nM. Also, the binding result in test [5] is reported as “no binding (tested: 10 µg/mL)”. Moreover, the “IC50, PAR-2 calcium flux assay” value in test [6] amounted to 169 nM.
